{"source": "paper PMC5012860", "about": "“Hemi-methylated DNA regulates DNA methylation inheritance through allosteric activation of H3 ubiquitylation by UHRF1” (eLife, 2016)", "binders": {"B1": {"name": "GST-tagged UHRF1 TTD-PHD (amino acids 123-366) (domain or fragment, human, UniProt Q96T88 123-366, looked up)", "chain": "DEDMWDETELGLYKVNEYVDARDTNMGAWFEAQVVRVTRKAPSRDEPCSSTSRPALEEDVIYHVKYDDYPENGVVQMNSRDVRARARTIIKWQDLEVGQVVMLNYNPDNPKERGFWYDAEISRKRETRTARELYANVVLGDDSLNDCRIIFVDEVFKIERPGEGSPMVDNPMRRKSGPSCKHCKDDVNRLCRVCACHLCGGRQDPDKQLMCDECDMAFHIYCLDPPLSSVPSEDEWYCPECRND", "notes": "human UHRF1 linked tandem Tudor domain and plant homeodomain (TTD-PHD), amino acids 123-366; also called GST-TTD-PHD; source: produced as previously described (Rothbart et al., 2013)"}}, "key": {"[1]": {"target": "T1, His-MBP-tagged UHRF1 SRA-RING (amino acids 405-793) (human, UniProt Q96T88 405-793)", "T1 construct": "human UHRF1 SRA-RING, amino acids 405-793; also called MBP-SRA-RING; source: E. coli, purified as described for UHRF1", "T1 sequence (looked up)": "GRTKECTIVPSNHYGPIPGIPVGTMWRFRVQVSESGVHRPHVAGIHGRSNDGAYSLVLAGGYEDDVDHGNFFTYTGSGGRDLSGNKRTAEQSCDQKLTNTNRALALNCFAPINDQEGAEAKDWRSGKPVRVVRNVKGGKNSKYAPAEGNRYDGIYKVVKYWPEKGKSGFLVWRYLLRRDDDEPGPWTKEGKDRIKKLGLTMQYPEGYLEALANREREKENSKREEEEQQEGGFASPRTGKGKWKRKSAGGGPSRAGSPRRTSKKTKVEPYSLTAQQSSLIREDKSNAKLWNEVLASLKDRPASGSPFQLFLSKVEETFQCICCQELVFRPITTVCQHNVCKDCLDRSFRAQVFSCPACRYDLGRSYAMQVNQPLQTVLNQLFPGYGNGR", "test": "pull-down; proteins each at 1 uM incubated overnight at 4 C with MBP magnetic beads in 50 mM Tris-HCl pH 8.0, 100 mM NaCl, 0.1% NP-40, 0.5% BSA; blot with GST antibody; also done with 25 uM H3_(1-20)K9me2 peptide, which did not inhibit", "conditions": "both partners purified"}, "[2]": {"target": "T2, MBP-SRA-RING DNA^mut (G448D) (human, UniProt Q96T88 405-793, G448D)", "T2 construct": "human UHRF1 SRA-RING, amino acids 405-793, with G448D (DNA^mut); source: E. coli, purified as described for UHRF1", "T2 sequence (looked up)": "T1 sequence (looked up) with G44D", "test": "pull-down; as a2 with SRA-RING DNA^mut in the presence of 5 uM DNA", "conditions": "both partners purified"}}, "note": "Numbering of substitutions follows the chain as printed."}
{"binder": "B1", "values": [{"measurement": "binding result", "setting": "[1]", "result": "binds"}, {"measurement": "binding result", "setting": "[2]", "result": "binds"}]}
